PMC7699647, “Nucleocapsid protein of SARS-CoV-2 phase separates into RNA-rich polymerase-containing condensates”

Target: nsp12;nsp7;nsp8 (SARS-CoV-2;SARS-CoV-2;SARS-CoV-2, UniProt P0DTD1;P0DTD1;P0DTD1 4393-5324;3860-3942;3943-4140, ||)
Experiment: size exclusion chromatography; 20 mM Na-HEPES pH 7.4, 100 mM NaCl, 1 mM MgCl2, 1 mM TCEP; NMR: 50 mM NaP, 0.01% NaN3, 5% D2O, 5 C; phase separation: 20 mM NaPi pH 7.5
Conditions: protein: recombinant;recombinant;recombinant; tags: 6xHis-MBP removed by TEV;His tag removed by TEV;His tag removed by TEV; copies: 1;1;2; label: 5' 6-FAM on strand 2; 5' overhang 11 nt on strand 1; other end blunt

B1: RdRp RNA scaffold (minimal RNA hairpin) (dsRNA)
RNA 1: UUUUCAUGCAUCGCGUAGGCUCAUACCGUAUUGAGA
RNA 2: UCUCAAUACGGUAUGAGCCUACGCG
- binding result: binds
